Target: E2 wild type, E2 subunit (acyltransferase component) of the pyruvate dehydrogenase complex of Geobacillus stearothermophilus (Geobacillus stearothermophilus) (UniProt P11961)
Test: SEC; E2wt on a Superdex200 gel filtration column in Solubility Buffer 2.2 (1x PBS, 50 mM L-glutamine, 50 mM NaCl, 250 mM L-arginine)

E2 wild type, E2 subunit (acyltransferase component) of the pyruvate dehydrogenase complex of Geobacillus stearothermophilus (from UniProt P11961 1-428) (natural protein)
stoichiometry N: 60
